This is an account of results in patent US20220010008A1.

In assay [1] the target is recombinant human IL-5 protein with His tag (human) (UniProt P05113). In words: cell-based or functional assay.
For assay [2], the target named is recombinant human IL-5 protein (human) (UniProt P05113). Description: FACS, biotin-IL-5 bound to CHOK1 hIL-5Ra/CSF2RB cells with Ab 0.0021 nM. Background: In flow cytometry, cells or beads pass a laser one at a time.
The target is the same in assay [3]. Description: FACS, biotin-IL-5 bound to CHOK1 hIL-5Ra/CSF2RB cells with Ab 0.0004 nM.
Assay [4] shares this target. Description: FACS, biotin-IL-5 bound to CHOK1 hIL-5Ra/CSF2RB cells with Ab 0.2667 nM.
For assay [5] the target is unchanged. Description: FACS, biotin-IL-5 bound to CHOK1 hIL-5Ra/CSF2RB cells with Ab 33.3333 nM.
Assay [6] has the same target. In words: FACS, biotin-IL-5 bound to CHOK1 hIL-5Ra/CSF2RB cells with Ab 0.0107 nM.
The target is the same in assay [7]. Description: FACS, biotin-IL-5 bound to CHOK1 hIL-5Ra/CSF2RB cells with Ab 6.6667 nM.
The target is the same in assay [8]. In words: FACS, biotin-IL-5 bound to CHOK1 hIL-5Ra/CSF2RB cells with Ab 1.3333 nM.
Assay [9] shares this target. In words: FACS, biotin-IL-5 bound to CHOK1 hIL-5Ra/CSF2RB cells with Ab 0.0533 nM.
Assay [10] has the same target. Description: cell-based or functional assay.
Assay [11] concerns the target recombinant human IL-5 protein with His tag (human) (UniProt P05113). In words: ELISA, biotin-human IL-5 on streptavidin; antibody 0.5333 nM.
Assay [12] has the same target. In words: ELISA, biotin-human IL-5 on streptavidin; antibody 0.0002 nM. In general terms: An ELISA detects its analyte on a solid surface through an enzyme-linked reagent.
The target is the same in assay [13]. Description: ELISA, biotin-human IL-5 on streptavidin; antibody 0.0043 nM.
Assay [14] shares this target. Description: ELISA, biotin-human IL-5 on streptavidin; antibody 2.6667 nM.
The target is the same in assay [15]. In words: ELISA, biotin-human IL-5 on streptavidin; antibody 0.1067 nM.
For assay [16] the target is unchanged. Description: ELISA, biotin-human IL-5 on streptavidin; antibody 0.0213 nM.
For assay [17] the target is unchanged. Description: ELISA, biotin-human IL-5 on streptavidin; antibody 0.0009 nM.
Assay [18] shares this target. In words: ELISA, biotin-human IL-5 on streptavidin; antibody 13.3333 nM.
The target of assay [19] is recombinant human IL-5 protein (human) (UniProt P05113). Description: ELISA, biotin-human IL-5 on streptavidin plate, Ab 0.0009 nM.
The target is the same in assay [20]. Description: ELISA, biotin-human IL-5 on streptavidin plate, Ab 0.0043 nM.
Assay [21] has the same target. In words: ELISA, biotin-human IL-5 on streptavidin plate, Ab 0.5333 nM.
Assay [22] has the same target. Description: FACS blocking: biotin-IL-5 bound to CHOK1 IL-5Ra/CSF2RB cells, Ab 0.0107 nM.
Assay [23] shares this target. In words: ELISA, biotin-human IL-5 on streptavidin plate, Ab 0.0002 nM.
For assay [24] the target is unchanged. In words: FACS blocking: biotin-IL-5 bound to CHOK1 IL-5Ra/CSF2RB cells, Ab 6.6667 nM.
Assay [25] has the same target. In words: ELISA, biotin-human IL-5 on streptavidin plate, Ab 2.6667 nM.
The target is the same in assay [26]. In words: FACS blocking: biotin-IL-5 bound to CHOK1 IL-5Ra/CSF2RB cells, Ab 0.0021 nM.
The target is the same in assay [27]. Description: ELISA, biotin-human IL-5 on streptavidin plate, Ab 0.0213 nM.
Assay [28] shares this target. In words: FACS blocking: biotin-IL-5 bound to CHOK1 IL-5Ra/CSF2RB cells, Ab 0.2667 nM.
The target is the same in assay [29]. In words: FACS blocking: biotin-IL-5 bound to CHOK1 IL-5Ra/CSF2RB cells, Ab 33.3333 nM.
The target is the same in assay [30]. In words: FACS blocking: biotin-IL-5 bound to CHOK1 IL-5Ra/CSF2RB cells, Ab 1.3333 nM.
Assay [31] has the same target. Description: FACS blocking: biotin-IL-5 bound to CHOK1 IL-5Ra/CSF2RB cells, Ab 0.0004 nM.
Assay [32] has the same target. Description: ELISA, biotin-human IL-5 on streptavidin plate, Ab 0.1067 nM.
Assay [33] shares this target. Description: ELISA, biotin-human IL-5 on streptavidin plate, Ab 13.3333 nM.
For assay [34] the target is unchanged. In words: FACS blocking: biotin-IL-5 bound to CHOK1 IL-5Ra/CSF2RB cells, Ab 0.0533 nM.

Where “and” joins values, the source holds several entries; their conditions need not be identical. Equal entries are not always repeated.

Mepolizumab (antibody): the TF1 (IC50), TF1 proliferation induced by IL-5 in [1] stood at 10 pM.

Consider mIgG control (mouse IgG) (antibody), for which the Fluorescence intensity in assay [2] was found to be 81. The Fluorescence intensity in assay [3] is 86. Besides, the Fluorescence intensity in assay [4] came to 84. In addition, in assay [5], the Fluorescence intensity is 80. In assay [6], the Fluorescence intensity stood at 83. Further, the Fluorescence intensity in assay [7] worked out at 85. In addition, the Fluorescence intensity in assay [8] is 83. Moreover, in [9], the Fluorescence intensity amounted to 83. In assay [10], the RLU, CTLL-2 cell proliferation stimulated by IL-5, Ab conc. 0.000170667 nM was 57400 RLU and 51000 RLU; the RLU, CTLL-2 cell proliferation stimulated by IL-5, Ab conc. 0.000853333 nM was 58600 RLU and 53800 RLU; the RLU, CTLL-2 cell proliferation stimulated by IL-5, Ab conc. 0.004266667 nM is 57900 RLU and 48200 RLU; the RLU, CTLL-2 cell proliferation stimulated by IL-5, Ab conc. 0.02133333 nM is 59800 RLU and 55900 RLU. In addition, in [10], the RLU, CTLL-2 cell proliferation stimulated by IL-5, Ab conc. 0.1066667 nM was 58200 RLU and 53500 RLU; the RLU, CTLL-2 cell proliferation stimulated by IL-5, Ab conc. 0.5333334 nM is 56200 RLU and 50500 RLU; the RLU, CTLL-2 cell proliferation stimulated by IL-5, Ab conc. 2.666667 nM was 51200 RLU and 46200 RLU; the RLU, CTLL-2 cell proliferation stimulated by IL-5, Ab conc. 13.33333 nM was 45800 RLU and 46300 RLU. In addition, in assay [10], the RLU, CTLL-2 cell proliferation stimulated by IL-5, Ab conc. 66.66666 nM is 43200 RLU and 34400 RLU; the RLU, CTLL-2 cell proliferation stimulated by IL-5, Ab conc. 3.41333E-05 nM is 58600 RLU and 55000 RLU; the RLU, TF-1 cell proliferation stimulated by IL-5, Ab conc. 0.00001 nM is 113000 RLU and 118000 RLU; the RLU, TF-1 cell proliferation stimulated by IL-5, Ab conc. 0.00003 nM is 112000 RLU and 116000 RLU. In [10], the RLU, TF-1 cell proliferation stimulated by IL-5, Ab conc. 0.00017 nM is 112000 RLU and 121000 RLU; the RLU, TF-1 cell proliferation stimulated by IL-5, Ab conc. 0.00085 nM was 115000 RLU and 117000 RLU; the RLU, TF-1 cell proliferation stimulated by IL-5, Ab conc. 0.00427 nM was 116000 RLU and 127000 RLU; the RLU, TF-1 cell proliferation stimulated by IL-5, Ab conc. 0.02133 nM was 108000 RLU and 131000 RLU. In addition, in assay [10], the RLU, TF-1 cell proliferation stimulated by IL-5, Ab conc. 0.10667 nM was 108000 RLU and 114000 RLU; the RLU, TF-1 cell proliferation stimulated by IL-5, Ab conc. 0.53333 nM was 103000 RLU and 106000 RLU; the RLU, TF-1 cell proliferation stimulated by IL-5, Ab conc. 2.66667 nM was 101000 RLU and 106000 RLU; the RLU, TF-1 cell proliferation stimulated by IL-5, Ab conc. 13.33333 nM is 101000 RLU and 102000 RLU.

For mIgG control (antibody), the OD450 nm in assay [11] was 0.08 and 0.077; in assay [12], 0.076 and 0.075; in assay [13], 0.078 and 0.072; in assay [14], 0.079; in [15], 0.08 and 0.079; in assay [16], 0.074 and 0.079. Moreover, the OD450 nm is 0.075 in assay [17]; 0.108 and 0.115 in assay [18].

With hIgG control (human IgG) (antibody), in assay [19], the OD450 nm is 0.08 OD450 nm and 0.078 OD450 nm. Moreover, the OD450 nm in [20] is 0.074 OD450 nm and 0.077 OD450 nm. In addition, the OD450 nm in assay [21] is 0.079 OD450 nm and 0.078 OD450 nm. In addition, in assay [22], the Fluorescence intensity stood at 85 MFI. Further, the OD450 nm in assay [23] is 0.082 OD450 nm and 0.08 OD450 nm. In assay [24], the Fluorescence intensity stood at 83 MFI. Besides, the OD450 nm in assay [25] was 0.09 OD450 nm and 0.088 OD450 nm. Besides, the Fluorescence intensity in [26] is 83 MFI. Further, the OD450 nm in [27] is 0.079 OD450 nm and 0.076 OD450 nm. Further, the Fluorescence intensity in assay [28] turned out to be 88 MFI. Also, the Fluorescence intensity in [29] stood at 84 MFI. Besides, the Fluorescence intensity in [30] turned out to be 84 MFI. Besides, the Fluorescence intensity in [31] turned out to be 88 MFI. Moreover, the OD450 nm in assay [32] is 0.078 OD450 nm. Also, in [33], the OD450 nm was 0.172 OD450 nm and 0.07 OD450 nm. For the same substance, the Fluorescence intensity in assay [34] worked out at 86 MFI. Also, in assay [10], the RLU, CTLL-2 proliferation with IL-5, Ab 0.000170667 nM is 57400 RLU and 51000 RLU; the RLU, CTLL-2 proliferation with IL-5, Ab 0.000853333 nM was 58600 RLU and 53800 RLU; the RLU, CTLL-2 proliferation with IL-5, Ab 0.004266667 nM was 57900 RLU and 48200 RLU; the RLU, CTLL-2 proliferation with IL-5, Ab 0.02133333 nM was 59800 RLU and 55900 RLU. In [10], the RLU, CTLL-2 proliferation with IL-5, Ab 0.1066667 nM was 58200 RLU and 53500 RLU; the RLU, CTLL-2 proliferation with IL-5, Ab 0.5333334 nM is 56200 RLU and 50500 RLU; the RLU, CTLL-2 proliferation with IL-5, Ab 2.666667 nM is 51200 RLU and 46200 RLU; the RLU, CTLL-2 proliferation with IL-5, Ab 13.33333 nM was 45800 RLU and 46300 RLU. For the same substance, in assay [10], the RLU, CTLL-2 proliferation with IL-5, Ab 66.66666 nM is 43200 RLU and 34400 RLU; the RLU, CTLL-2 proliferation with IL-5, Ab 3.41333E-05 nM was 58600 RLU and 55000 RLU; the RLU, TF-1 proliferation with IL-5, Ab 0.00001 nM is 113000 RLU and 118000 RLU; the RLU, TF-1 proliferation with IL-5, Ab 0.00003 nM was 112000 RLU and 116000 RLU. In assay [10], the RLU, TF-1 proliferation with IL-5, Ab 0.00017 nM is 112000 RLU and 121000 RLU; the RLU, TF-1 proliferation with IL-5, Ab 0.00085 nM was 115000 RLU and 117000 RLU; the RLU, TF-1 proliferation with IL-5, Ab 0.00427 nM is 116000 RLU and 127000 RLU; the RLU, TF-1 proliferation with IL-5, Ab 0.02133 nM was 108000 RLU and 131000 RLU. For the same substance, in [10], the RLU, TF-1 proliferation with IL-5, Ab 0.10667 nM was 108000 RLU and 114000 RLU; the RLU, TF-1 proliferation with IL-5, Ab 0.53333 nM is 103000 RLU and 106000 RLU; the RLU, TF-1 proliferation with IL-5, Ab 2.66667 nM was 101000 RLU and 106000 RLU; the RLU, TF-1 proliferation with IL-5, Ab 13.33333 nM is 101000 RLU and 102000 RLU.
